Test: yeast display, Sf9 membrane polyspecificity reagent, FACS + sequencing; frameworks hold sequencing errors
Method in brief: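 A synthetic nanobody library was expressed on Saccharomyces cerevisiae BJ5465 by galactose induction for 36–48 hours. The library was stained for 1 hour at 4 °C with 10% biotinylated, detergent-solubilized Sf9 membrane reagent and enriched with streptavidin microbeads before FACS. Low and high (top ~1%) gates were set on anti-HA fluorescence for expression and streptavidin fluorescence for reagent binding, and each polyreactivity label reflects the gate of origin.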

Row | Sequence | polyreactivity (PSR sort gate)
1 | QVQLVESGGGLVQAGGSLRLSCAASGRTFRYYAMGWYRQAPGTERELVATITGSGGSTYYADSVKGRFTISRDNAKNSVYLQMNSLKPEDTAVYYCNARKVRYPYRWYDYWGQGTQVTVSS | high polyreactivity
2 | QVQLVESGGGLVQAGGSLRLSCAASGSIFPQYAMGWYRQAPGTERELVAAISSSGGRTYYADSVKGRFTISRDNAKYTVYLQMNSLKPEDTAVYYCITRWRSRYGYGDQSEDYWGQGTQVTVSS | high polyreactivity
3 | QDQLVESGGGLVQAGGSLRLSCAASGSNFSWNDMGWYRQAPGKERELVAAITSDDTSTYYADSVKGRFTISRDNAKNSVYLQMNSLKPEDTAVYYCAADYGNPFDYWGQGTQVTVSS | low polyreactivity
4 | QVQLVESGGGLVQAGGSLRLSCAASGSIFQYYVMGWYRQAQGKERELVAAISRGGGSTYYADSLKGRFTISRDNAKNTVYLQMNSMKPEDTAVYYCAKRTTRLAPYDYWGQGTQVTVSS | high polyreactivity
5 | QVQLQESGGGLVQAGVSLRLSCAASGSIFADVQMGWYRQAPGKERELVASIIFRGTTTYYADSVKGRFTISRDNAKNTVYLQMSSLKPEDTAVYYCAVGRSEGGDFAYWGQGTHVTVSS | low polyreactivity
6 | QVQLVESGGGLVQAGGSLRLSCAASGRTFITNAMGWSRPAPGKEREFVAAIRGGRGSTYYADSVKGRFTISRDNAKNTVYLQMNSVKPEDTAVYFCAARYWLFPRGYNYWGQGTQVTVSS | high polyreactivity
7 | QVQLVESGGGLVQAGGSLRLSCAASGFIFYRYVMGWFRQAPGKERELVAAISGRGGSTYYADSVKGRFTISRDNAKNTVYLQMNSLTPEDTAVYYCNRLVYRAAGGPMDYWGQGTQVTVSS | high polyreactivity
8 | QVQLVESGGGLVQAGGSLSLSCAASVSTSLSYDMGWYRQAPGKERELVASITSSGGSTYYADSVKGRFTIARDNAKNTVYLQMKSLKPEDTAVYYCNARSYIYPFSPTSYYRYYWGQGTQVTVSS | high polyreactivity
9 | QVQLVESGGGLVQAGGSLRLSCAASGSTIFENVMGWYRQAPGKEREFVAAINTSGGSTYYADSVKGRFTISRDNAKYTVYLQMNSLKPEDTAVYYCARDSYWEMDYWGQGTQVNVSS | low polyreactivity
10 | QVQLVESGGGLVQAGGSLRLSCAASGRISGVNAMGWYRQAPGKERELVATISGSGGRTYYADSVKGRFTISRDNAKNTVYLQMNSLKPEDTAVYYCNTLVQRGGYFSLRFDYWGQGTQVTVSS | low polyreactivity
11 | QVQLVESGGGLVQAGGSLRLSCAASGSTFKAYAMGWYRQAPGKERELVAAITRRGTSTYYADSVKGRFTISRDNAKNTVYLQMNSLKPEDTAVYYCNAKYVSDRSSAVSFDYWGQGTQVTVSS | low polyreactivity
12 | QVQLVESGGGLVQAGGSLRLSCAASGLTFSLYAMGWYRQAHGKERELVAAISWTGGSTYYADSVKGRFTISRDNAKNTVYLQMNSLKPEDTAVYYCNARYTLFARYGYDYWGQGTQVTVSS | low polyreactivity
13 | QVQLVESGGGLVQAGGSLRLSCAASGFIFPYYAMGWYRQAPGKDRELVAAISQSGGSTYYADSVKGRFTISRDYAKNTVYLQMNSLKPEDTEVYYCAKFIPSYHDGDYWGQGTQVTVSS | low polyreactivity
14 | QVQLVESGGGLVQAGCSLRLSCAASGSTFFYYAMGWYRQSPGKERELVARISGGGSTNYADSVKGRFTISRDNAKNTVYLQMNSLKPEDTAVYYCAADRYDYYRYSYGRYGYWGQGTQVTVSS | high polyreactivity
15 | QVQLVESGGGLVQAGGSLRLSCAASGFTFAYYAMGWYRQAPRKESELVAGISWRGGRTYYADSVKGRFTISRDNAKNTVYLQMNSLKPEDTAVYYCAKQPGNFGRFDYWGQGTQVTVSS | high polyreactivity
16 | QVQLVESGGGLVQAGGSLRLSCAASGSTFKYNAMGWYRQAPGKERELVATISGTGGSTYYADSVKGRFTISRDNAKNTVYLQMNSLKPEDTAVYYCAARWGRSQLRYYYWGQGTQVTVSS | high polyreactivity
17 | QVQLVESGGGLVQAGGRLRLSCAASGRTFRGNVMGWYRQAPGKEREFVAAITKSDGSTYYADSVKGRFTISRDNAKNTVYLQMNSLKPEDTAVYYCAARTGRTGWPWFRYDYWGQGTQVTVSS | low polyreactivity
18 | QVQLVESGGGLVQAGGSLRLSCAASGAIFGFYAMGWYRQAAGKERELVADITFSVGSTNYADSVKGRFTISRDNAKNTVYLQRNSLKPEDTAVYYCAVANVYYEGYDYWGQGTQVTVSS | low polyreactivity
19 | QVQLVESGGGLVQAGGSLRLSCAASGRTFTAYAMGWYRQAPGKERELVAAISVGGGSTYYADSVKGRFTISRDNAKNTVYLQMNSLKPEDTAVYYCAADRSYYLDGYDYWGQGTQVTVSS | low polyreactivity
20 | QVQLVESGGGLVQAGGSLRLSCAASGSTFQGYAMGWYRPAPGTERELVAAINYSGGSTYYADSVKGRFTISRDNAKNTVYVLMNSLKPEDTAVYYCAVKLRSRAGTSYGYWGQGTQVTVSS | high polyreactivity
21 | QVQLVESGGGLVQAGGSLRLSCAASGGIFGIYAMGSYRQAPGKERELVAAINGGTSTYYADSVKGRFTISRDNAKNTVYLQMNSLKPEDTAVYYCAADWRYLYYALDYWGQGTQVTVSS | low polyreactivity
22 | QVQLVESGGGLVQAGGSLRLSCAASGRIFKRNAMGCYRQAPGKERELVATIDWSGGSTYYADSVKGRFTISRDNAKNTVYLQMNSLKPEDTAVYYCAAASGRWNKYGYWGQGTQVTVSS | low polyreactivity

Row | Sequence | polyreactivity (PSR sort gate)
23 | QVQLVESGGGLVQAGGSLRLSCAASGRTFVIYAMGWYRQAPGKERELVAAISKGGGSTYYADSVKGRFTISRDNAKNTVYLQMNSLKPEDTAVYYCAAGYGTYYQYSRFDYWGQGTQVTVSS | high polyreactivity
24 | QVQLVESGGGLVQAGGSLRLSCAASGRTFYRYTMGWYRQAPGKERELVAAIDRRGGSTYYADSVKGRFTISRDNAKNTVYLQMNSLKPEDTAVYYCNAVTHYSFDYWGQGTQVTVSS | high polyreactivity
25 | QVHLVESGGGLVQAGGSLRLSCAASGLIFVKYALGWYRQAPGKEREFVAAITRSGGTTYYADSVKGRFTISRDNAKNTVYLQMNSLKPEDTAVYYCAAGVVIYFFGGGDYWGQGTQVTVSS | low polyreactivity
26 | QVQLVESGGGLVQARGSLRLSCAASGRIFSKYAMGWYRQAPGKERELVAAISSSGVSTYYADSVKGRFTISRDNAKNTVYLQMNSLKPEDTAVYYCYKRTSPKRFDYWGQGTQVTVSS | high polyreactivity
27 | QVQLVESGGGLVQAGGSLRLSCAASGRIFDQYAMGWYRQAPGKERELVAVISSSGTTNYADSVKGRFTISRDNAKNTVYLQMNSLKPEDTAVYYCAARRQSWFVAAHMDYWGQGTQVTVSS | low polyreactivity
28 | QVQLEESGGGLVQAGGSLRISCAASGSTYYNYAMGWYRQAPGKERELVAAISRSGITYYADSVKGRFTISRDNAKNTVYLQMNSLKPEDTAVYYCAAGRRFDQSMYYWGQGTQVTVSS | high polyreactivity
29 | QVQLVESGGGLVQAGGSLRLSCAASGFIFYQYAMGWYRQAPGKERELVATISFRGGRTYYADSVKGRFTISRDNAKNTVYLQMNSLKPEDTAVYYCNAKRVSSRFYKWDYYWGQGTEVTVSS | high polyreactivity
30 | QVQLVESGGGLVQAGGSLRLSCAASGITFPLYVMGWYRQAPGKERELVAAISASGGSTYADSVKGRFTISRDNAKNTVYLQMNSLKPEDTAVYYCNADVYVGYEYVYWGQGTQVTVSS | low polyreactivity
31 | QVQLGESGGGIVQAGGSLRLSCAASAFIIKYYAMGWYRPAPGKETELVAAIDGSSASTYYADSVKGRFTISRDNAKNTVYLQMNSLKPEDTAVYYCAVARLRRGGVQYGYWGQGTQVTVSS | high polyreactivity
32 | QVQLVESGGGLVQAGGSLRFSCAASGFIFVVNAMGGSRQAPGKEREFVAVISSSTGSTYYADSVKGRFTISRDNAKTTVYLQMNSLKPEDTAVYYCAAASRRRRPLKRMDYWGQGTQVTVSS | low polyreactivity
33 | QVQLVESGGGLVQAGGSLRLSCAASGSIFPVNAMGWYRQAPGKEREFVAAINVIGGSTYYADSVKGRFTISRDNAKNTVYLQMNSLKPEVTAVYYCAVEGYSILFGMDYLGQGTQVTVSS | low polyreactivity
34 | QVQLVESGGGLVQAGGSLSLSCAASGRIFYRYAMGWYRQAPVKERELVAAISGSVGSTYADSVKGRFTISRDNAKNTVYLQMISLKPEDTAVYYCARETYRRYGAYDYWGQGTQVTVSS | low polyreactivity
35 | QVQLVESGGGLVQAGGSLRLSCAASGSIFPWYAMGWYRQAPGKERELVAAITISGGSTHYADSVKGRFTISRDNAKNTVYLQMNRLKPEDTAVYYCATPRYPSYDYWGQGTQVTVSS | low polyreactivity
36 | QVQLVESGGGLVQAGGSLRLSCAASGSILGRYAMGWYRQAPGKERELVAAITSSGGRTYYADSVKGRFTISRDNAKNSVYLQMNSLKPEDTAVYYCAARYGRRLVWVPALLYDYWGQGTQVTVSS | high polyreactivity
37 | QVQLVESGGGLVQAGGSLRLSCAASGRIFYYAMGWYRQAPGKERELVAVITYSGGNTYYADSVKGRFTISRDNAKNTVYLQMNSLKPEDTAVYYCAKAVSTKISRYYHYYKHYDYWGQGTQVTVSS | low polyreactivity
38 | QVQLVESGGGLVQAGGSLRLSCAASGFTFYRYTMGWYRQAPGKERELVAAITNTDSTNYADSVKGRFTISRDNAKNTVYLQMNSLKPEDTAVYYCNAAYVWYRIFVRRDYWGQGTQVTVSS | high polyreactivity
39 | QVQLVESGGGLVQAGGSLRLSCAASGSIFAYAMGWYRKAPGKEMELVAAISGGSTYYADSVKGRFTISRDNAKNTVYLQMNSVKPEDTAVYYCAADLDDERYYWGQGTQVTVSS | low polyreactivity
40 | QVQLVESGGGLVQAGGSLRLSCAASGSTLRTYAMVWYRQAPGKERELVAAISFSTTSTYYADSVKGRFTISRDNATNTVYLQMNSLKPEDTAVYYCAATYQILTTSAHDSWGQGTQVTVSS | high polyreactivity
41 | QVQLVESGGGLVQAGGSLSLSCASSANIFGVYAKGWYRQPPGKERELVAAIRYSTVSTYYADSVKGRFTISRDNAKNTVYLQLHSLKPEDTAVFYCAAQRRLYLPGHYYYWGQGTQVTVSS | high polyreactivity
42 | QVQLVESGGGLVQAAGSLRLSCAASGITFRWYAMGWYRQAPGKERELVAAITYRGGSTHYEDSVKGRFTISRDNAKTSVYLQMNSLKPEDTAVYYCAVRRWPRYRWSDYWGKGTQVTVSS | low polyreactivity
43 | QVNHVESGGGLVQAGGSLRLICAASGSTYNNAMGWYRQAPGKERELVAAIRWSGGSTYYADSVKGRFTISRDNANYTVYLQMNSLNPEDTAVYYCASAYRWSRKRYNDYDYWGQGSQVTVSS | high polyreactivity
